For this test, the target named is HHV-6B U14 N-terminal domain (U14-NTD), residues 2-458 (human herpesvirus 6B (HHV-6B) strain HST). Briefly: crystal structure.

As a reminder, the stoichiometry N is a count of units in the complex or per binding partner.

In turn, “HHV-6B U14 N-terminal domain (U14-NTD), residues 2-458 (domain or fragment)” gave a stoichiometry N of 2.

These data come from article PMC4859480.
